Here are results for one substance from publication PMC2132754.

In general, stoichiometry N refers to the number of molecules, sites or subunits per partner or assembly.

The target in the test is recombinant mouse α-catenin with a COOH-terminal histidine tag (mouse) (UniProt P26231). In words: co-sedimentation.
Chain of UniProt P26231 (P26231 whole entry): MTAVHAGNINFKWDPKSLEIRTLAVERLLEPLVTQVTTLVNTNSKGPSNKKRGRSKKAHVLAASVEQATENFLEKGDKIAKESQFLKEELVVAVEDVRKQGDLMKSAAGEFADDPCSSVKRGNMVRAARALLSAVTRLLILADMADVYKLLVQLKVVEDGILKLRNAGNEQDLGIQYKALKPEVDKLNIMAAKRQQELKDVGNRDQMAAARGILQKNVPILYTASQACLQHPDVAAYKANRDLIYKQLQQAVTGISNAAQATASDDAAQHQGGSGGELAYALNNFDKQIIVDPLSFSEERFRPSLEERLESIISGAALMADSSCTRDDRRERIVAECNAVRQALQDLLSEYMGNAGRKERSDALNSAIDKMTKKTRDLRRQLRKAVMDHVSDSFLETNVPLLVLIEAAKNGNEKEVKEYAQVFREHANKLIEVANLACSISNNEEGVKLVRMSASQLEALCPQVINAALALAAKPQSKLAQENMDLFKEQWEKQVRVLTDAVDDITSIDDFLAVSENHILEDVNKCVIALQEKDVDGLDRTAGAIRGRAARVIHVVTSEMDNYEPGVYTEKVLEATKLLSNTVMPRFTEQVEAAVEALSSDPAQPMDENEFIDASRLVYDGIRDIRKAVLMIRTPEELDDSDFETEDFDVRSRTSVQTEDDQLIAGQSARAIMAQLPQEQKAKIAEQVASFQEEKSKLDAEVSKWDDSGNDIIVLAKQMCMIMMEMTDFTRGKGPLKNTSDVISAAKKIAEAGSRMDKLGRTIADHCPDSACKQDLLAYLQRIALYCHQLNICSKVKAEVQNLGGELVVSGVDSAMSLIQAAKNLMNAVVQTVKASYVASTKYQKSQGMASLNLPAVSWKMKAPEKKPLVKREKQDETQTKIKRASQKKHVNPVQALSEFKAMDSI

As for “vinculin 90-kD head fragment (V8 protease fragment of chicken gizzard vinculin) (domain or fragment)”, the stoichiometry N came out at 1.
